The series can be described thus: soluble on expression in E. coli; label from the status in PepcDB or PDB records.
With “QTMGGDDVKVVQYNQEKLVQTRMSVADNGWIYVMTHSGYDTGNSNVKIFRSKDQGATYQKLRDWDPSDDYQFQDFDIVVTGKNESDIKIWSVELMNKPGGYKSRVAVFSRDANAQNAKLVYKEDFSNVQLYDVDIASNYRSPSSLNNGGNPFALAFAYTGFNNTHKISFVDYVFSLNGGQNFNKNLLFSQDGEKKIDKVDLSLGSTSESMGHNAWPLMGVVFEMNKQGGKSDIGFLSNFVDNDPEFQWSGPIKVSESDMSFSPKIQMLLDEDNNTINGESCHNFMITYSDYDSEYSDWDIRYVYPKKSFKYEKGKTPTMDDLVEAFLTASYQSETNSGLGYDKNANHYLITYAKKEENGTNTLKYRWANYDKIHNKDLWSDTFTYTSSANALYTPQVDINPTKGLVCWSWVEYLPGKRIVWSDTQWTHANGVEDIVMQEGSMKLYPNPAQE”, the “soluble on expression in E. coli” value is given as “not soluble”.
“GKRLYNVKQSALSIRQIDLQRRHIEQSIRMGIKNQNDRLRTCMQRFVASEEAVRSAEKGYQIAEKRYQTGEGTLVELNDADVALLQARLNYNQAIFDFMTAKAELDKMNGMGIPEQ”: the “soluble on expression in E. coli” value was “not soluble”.
For the sequence “METTWDLTPLFPGLESPEFQRAWEGLKGRIGELKGLLEREAPLPEVLAALDAFLEEATPLRAYLYARYSADTRDEAALAKLSELEILFLDFQRLRPRLTRYLALKDPEEAGPHRLLVEEAKEEALHMMPEGEEVLAAELSLSGRAAWDKLHESLTSQITAVVDGEEMPITKVRNLYFHPEEEVRKKAYEAELKAWEAHEVPLAFALNGVKGEASVLNRRRGYRDDLEPTLHENRITRKALKAMQEAVGESLPLFRRYFLLKARALGKERLDWWDLFAPLGRGRRWSLEEARAFIPAKLAALVPNAAKVAEMAFHERWMDLLPRKGKVGGAYCMARGGGKSLILANYEESFESVSTLAHELGHAYHNFALKEAPASLRRVPMTLAETASIMNETLVVEAALKEASPEEGLLILDAYLQGAAQVVVDIHSRFLFESWVFQRRKARELSPREFKELMLKAQEEAYGEALATRHPYMWAVKGHYYGADFYNYPYTFGLLFGLAVYQEAKEDPGFAGRYEALLAESGRYRAKELALRFGFDLESVDFWRRGIRVLEEKVAQLERMISP”, the “soluble on expression in E. coli” value was “soluble”.
As for “MKSRRAFITDAGGDHGSMNTQATPSPQFYLTAPATCPYLPNQMERKVFTHLVGPRAPEMNDLLTQGGFRRSQNIAYRPACETCRACVSVRILTEQFQPTKSMRRVLAANSDVVATVHAAEPSTEQFALFRRYLDHRHQSGGMSDMSALDYAIMVEDTHVNTRIIEYRVREPGSGIDSSKRGELLAVALSDVMSDGLSMVYSFFNPELEKRSLGTFMIIDHITRTRALGLPHVYLGYWVDGSEKMGYKTRYHPQEHLTPRGWEIYSPKEELEHHHHHH”, the “soluble on expression in E. coli” value was “not soluble”.
The result for “MGSDKIHHHHHHMRDHVEIGIGREARRTYSLDDISVVSSRRTRSSKDVDTTWHIDAYKFDLPFMNHPSDALASPEFVIEMGKQGGLGVINAEGLWGRHADLDEAIAKVIAAYEEGDQAAATRTLQELHAAPLDTELLSERIAQVRDSGEIVAVRVSPQNVREIAPIVIKAGADLLVIQGTLISAEHVNTGGEALNLKEFIGSLDVPVIAGGVNDYTTALHMMRTGAVGIIVGGGENTNSLALGMEVSMATAIADVAAARRDYLDETGGRYVHIIADGSIENSGDVVKAIACGADAVVLGSPLARAEEAAGKGYFWPAVAAHPRFPRGVVTESVDLDEAAPSLEQILHGPSTMPWGVENFEGGLKRALAKCGYTDLKSFQKVSLHVN” reads “not soluble”.
On to “MIHDYHWRRGKRRKLIVMMETRMMIIMMTIKPPHDIYREQQNHHDDETKRSTKHCVTATHPWPRPAASCFRCPLRGGHHRRRPACALPHGWSVMNSCSLEHHHHHH”, for which the “soluble on expression in E. coli” value is “not soluble”.
The result for “MAGDPMTYRDFIGRLKENGKLVEIQQPVSPIFEASRIAKKTKGPVLFHNVSGSKVIMNLLGSRDELSSMLGVPKEEIIKKLSEVSPEGEVRLVPGSPTLEVIESEVDLTKLPILTHFEKDGAPYITAGIVVSEYEGVMNASIHRLMLVGKDKLAARLVPPRHTYLLHKKAAEKGETLPVAIVLGCDPTIIYATSTRVPAGKEFEYAAALRGTPVEVFECSNGIKVPHSEIILEGYIDTKERVDEGPFVDITGTYDMVRKEPVIHITRIIHRKDPIYHGILPAGPEHLLMMGVPYEPRIYRAVGEVTTVKNVVLTEGGCCYLHAVVQIEKQTEGDAKNAIMAAFAAHTSLKHVVVVDEDINIFDPNDVEFAIATRVKGDMDILTITNVRGSSLDPRGASDGTTTKVGIDATKVLIEKENFERAIIPEELEHHHHHH” reads “not soluble”.
For “MTDTRASAHLYPAHDLAVCTDAGSAVERITAIYDRSAQAIRARFHAFARGEALDDDTPACYPYLGITVDPKTLVSDARPSWGTVAYPGVYGTTLTRPDLFREYYRVQIERLLHYHNSPVVVGVSNRPIPLPFVVEASTIDITPEQARALGGAFPLPDLAQIDDAIANGTYRPADNEPQPLSMFTAERVDLALQRLYHYTATHPKHFQRFVLFTNYQRYVDEFAALGRKLMEEGNDEGYVRFVEPGDTVHELGTPAPDDSHRIKGLPQMPAYHLVREDRLGVTLVNIGVGPSNAKTITDHLAVLRPHCWMMIGHCGGLRRSQQLGDYVLAHAYVRDDHVLDQDLPPWVPVPPIAEIQVALQEAVARITGLSGSDMKSRMRTGTVVSTDDRNWELKYQALYTRFNQSRAIAIDMESATIAANGFRLRVPYGTLLCVSDKPLHGELKLRGMANLFYRQRVSQHLAIGMEAVRLLRENGVETLHSRKLRSFDEPAFR”, the “soluble on expression in E. coli” value is “soluble”.
For the sequence “MGSDKIHHHHHHMTFEEFKDRLFALAKKNGVEVQISFLETREFSLRLANGDLDQYTDAGKFNVEIKVLKDGKTGTFRTQVLENPEKCFEEALSNLQVKDSEEKEYFFEGGKEYREMETYVGRFEKLSVKEKMDMAKKAHESAAKDERVVMVPTVMYKDMVIKKIITNTLGLDVESQMDGGFLFAMAIARDANPRSGSWYELARTPEDLNPEEIGKRAAEEAISLIGSKTIPSGKYPVLMRNTALLDLMEMFIPMISAENVQKNLSPLKGKLGEQVGNPAVSIKDLPYHPKGLSSTPFDDEGVPTTEKFVLENGVLKTFLHNLKTARKEGVEPTGNGFVGGIRPVNLMLMPGEKSFEELLKEMDRGVVITEVEGMHAGANSISGEFSLFAKGYWVENGEIAHGVEDITISGNFLDLLRKIVLVGNDVKVSQHTIAPSVLVEVLDVAGK”, the “soluble on expression in E. coli” value is on record as “soluble”.
Consider “MGSDKIHHHHHHMTKHLYIDEYGSFVGKTSERLTVSQGGELKAEIPLSRLKSVNILKGGISLSSDIIEACSLRGIKIFFLDFRNVAHTAITSTANHAVANVRKAQFLTIESNHGREIARTLIVGKLKNQRATLQYFYKYLKNTDKQSKKLESAIEKIKETIESLKNIELSNNKHWSQIIMGKEGGMAAIYFDAIGAELLEECDFTTRIGRGAEDIMNSALNYGYAILTSFVWQSIINAGLEAYAGVLHTNRPGKPSLVLDVMEEYRAWVVDRNIIKLRSSLAGKKELDAELKKKIITEINATMNKKHLYNGKNLSLQGVMQRQVYRLVGAFMQQNRYKSYIFKW”, for which the “soluble on expression in E. coli” value is listed as “not soluble”.
Regarding “MELKKIVEAILFSSSEPVDARELRKITGKDKVEILNAIGELIKDYESRDTSIEIIKVGEKYLMRVKPQYAEYVERFTVREFDRGTLRTLAVIALKQPITLAKVAKIRGNKCYEHVKKLQERGLVKAEKKGRSTILTTTEEFATYFGLDSAEPEKIKEALKGYLEAE”, the “soluble on expression in E. coli” value is recorded as “soluble”.
As to “MDDVRLHAIYQDITRDYLPPASLNHLMLLSKQTQHKLSFKSAPIPDLQPFFKNFTSKTPGSAKESPCSSTAKISSSISISSQCIFNVVILSFVFTSQNLNLPSHPALHNVSPESLNDRLMTQLECANSPRLACELWVGTDKEPILSPNSVSYRVMQPNEFES”, the “soluble on expression in E. coli” value is recorded as “soluble”.
As to “SNAMLRYGDTEICIDPSESVLHLLGKKYTMLIISVLGNGSTRQNFNDIRSSIPGISSTILSRRIKDLIDSGLVERRSGQITTYALTEKGMNVRNSLMPLLQYISVLDRNGD”, the “soluble on expression in E. coli” value is recorded as “soluble”.
The result for “MTSKQSVSQCVKPPRPPAWIMQPPPDWQTPLNGIISPSERGLEHHHHHH” reads “not soluble”.

The values are drawn from the DeepSol protein solubility set.
